From PMC11784217

B1: wild-type US28 receptor with a C-terminal natural peptide tag (US28-NP) [human cytomegalovirus (HCMV)] / LgBiT-Gαq [not stated] (parent)
chain 1: MTPTTTTAELTTEFDYDEDATPCVFTDVLNQSKPVTLFLYGVVFLFGSIGNFLVIFTITWRRRIQCSGDVYFINLAAADLLFVCTLPLWMQYLLDHNSLASVPCTLLTACFYVAMFASLCFITEIALDRYYAIVYMRYRPVKQACLFSIFWWIFAVIIAIPHFMVVTKKDNQCMTDYDYLEVSYPIILNVELMLGAFVIPLSVISYCYYRISRIVAVSQSRHKGRIVRVLIAVVLVFIIFWLPYHLTLFVDTLKLLKWISSSCEFERSLKRALILTESLAFCHCCLNPLLYVFVGTKFRQELHCLLAEFRQRLFSRDVSWYHSMSFSRRSSPSRRETSSDTLSDEVCRVSQIIP
chain 2: MTLESIMACCLSEEAKEARRINDEIERQLRRDKRDARRELKLLLLGTGESGKSTFIKQMRIIHGSGYSDEDKRGFTKLVYQNIFTAMQAMIRAMDTLKIPYKYEHNKAHAQLVREVDVEKVSAFENPYVDAIKSLWNDPGIQECYDRRREYQLSDSTKYYLNDLDRVADPAYLPTQQDVLRVRVPTTGIIEYPFDLQSVIFRMVDVGGQRSERRKWIHCFENVTSIMFLVALSEYDQVLVESDNENRMEESKALFRTIITYPWFQNSSVILFLNKKDLLEEKIMYSHLVDYFPEYDGPQRDAQAAREFILKMFVDLNPDSDKIIYSHFTCATDTENIRFVFAAVKDTILQLNLKEYNLV
B2: wild-type US28 receptor with a C-terminal natural peptide tag (US28-NP) [human cytomegalovirus (HCMV)] / LgBiT-Gα12 [not stated] (parent)
chain 1: B1 chain 1
chain 2: MSGVVRTLSRCLLPAEAGGARERRAGSGARDAEREARRRSRDIDALLARERRAVRRLVKILLLGAGESGKSTFLKQMRIIHGREFDQKALLEFRDTIFDNILKGSRVLVDARDKLGIPWQYSENEKHGMFLMAFENKAGLPVEPATFQLYVPALSALWRDSGIREAFSRRSEFQLGESVKYFLDNLDRIGQLNYFPSKQDILLARKATKGIVEHDFVIKKIPFKMVDVGGQRSQRQKWFQCFDGITSILFMVSSSEYDQVLMEDRRTNRLVESMNIFETIVNNKLFFNVSIILFLNKMDLLVEKVKTVSIKKHFPDFRGDPHRLEDVQRYLVQCFDRKRRNRSKPLFHHFTTAIDTENVRFVFHAVKDTILQENLKDIMLQ

Variants of: B1
Assay: NanoBiT nLuc complementation assay in live HEK-293 cells (Nano-Glo live cell assay), area under the curve
Settings: with LgBiT-Gαq, 18 hours post-transfection media exchanged with serum-free DMEM, 6 hours later luciferase activity monitored for 60 minutes, parent: 2.9e+07, read off a plot

Row | Variant | response (Arbitrary Units)
1 | chain 1 D128A R129A Y130A | 6e+06
2 | chain 1 R225A | 1.6e+07
3 | chain 1 S218A | 1.8e+07
4 | chain 1 K223A | 1.7e+07
5 | chain 1 S220A | 3e+07

Variants of: B2
Assay: as above
Settings: with LgBiT-Gα12, 18 hours post-transfection media exchanged with serum-free DMEM, 6 hours later luciferase activity monitored for 60 minutes, parent: 2.2e+07, read off a plot

Row | Variant | response (Arbitrary Units)
6 | chain 1 R225A | 1.1e+07
7 | chain 1 S218A | 6.8e+06
8 | chain 1 K223A | 8.9e+06
9 | chain 1 D128A R129A Y130A | 2.8e+06
10 | chain 1 S220A | 1.7e+07
